# In article PMC12638815, “Targeting ACE2 with a camelid antibody inhibits SARS-CoV-2 binding and has protective effects in vivo” (Nature Communications, 2025):
# Where a chain is given by its changes, count along the chain named.
# B1: endogenous ACE2 on Vero E6 cells (receptor, simian (endogenous in Vero E6))
# chain: QSTIEEQAKTFLDKFNHEAEDLFYQSSLASWNYNTNITEENVQNMNNAGEKWSAFLKEQSTLAQMYPLQAIQNLTVKLQLQALQQNGSSVLSEDKSKRLNTILNTMSTIYSTGKVCNPNNPQECLLLDPGLNEIMEKSLDYNERLWAWEGWRSEVGKQLRPLYEEYVVLKNEMARANHYKDYGDYWRGDYEVNGVDGYDYNRDQLIEDVERTFEEIKPLYEHLHAYVRAKLMNAYPSYISPTGCLPAHLLGDMWGRFWTNLYSLTVPFGQKPNIDVTDAMVNQAWNAQRIFKEAEKFFVSVGLPNMTQGFWENSMLTDPGNVQKVVCHPTAWDLGKGDFRIIMCTKVTMDDFLTAHHEMGHIQYDMAYAAQPFLLRNGANEGFHEAVGEIMSLSAATPKHLKSIGLLSPDFQEDNETEINFLLKQALTIVGTLPFTYMLEKWRWMVFKGEIPKDQWMKKWWEMKREIVGVVEPVPHDETYCDPASLFHVSNDYSFIRYYTRTLYQFQFQEALCQAAKHEGPLHKCDISNSTEAGQKLLNMLKLGKSEPWTLALENVVGAKNMNVRPLLNYFEPLFTWLKDQNKNSFVGWSTDWSPYADQSIKVRISLKSALGANAYKWNDNEMYLFRSSVAYAMRQYFLENKHQTILFGEEDVRVADLKPRISFNFYVTAPKNVSDIIPRTEVEEAIRFSRSRINDAFQLNDNSLEFLGIQSTLIPPYQSPVTTWLIVFGVVMAVIVAGIVVLIFTGIRDRKKKNQARSEENPYASIDISKGENNPGFQNTDDVQTSF
# notes: ACE2 endogenously expressed by the simian kidney cell line Vero E6; also called non-human ACE2 (Vero E6); source: endogenous, Vero E6 cells
# B2: VHH B07 (VHH)
# VHH: EVQLQASGGGLVQAGGSLRLSCAASRSTFSTNTIGWYRQAPGKQRELVASISTSGNTYYPDSVKGRFAISRDNAENTVYLQMNSLKPEDTAVYYCNTPSRRISNFWGQGTQVTVSS
# notes: alpaca VHH from phage display (gene IGHV3S53); Expressed from pHEN6 with c-myc and His tags at the C-terminal end; also called anti-hACE2 VHH B07; source: E. coli TG1 periplasm, purified (His pure Cobalt sepharose beads); not shown: c-myc, C-terminal, kept; His, C-terminal, kept
# B3: VHH B09 (VHH)
# VHH: B2 VHH with E1Q, Q5V, A6E, A24T, T31S, P60A
# notes: No structure of B09 was solved; also called anti-hACE2 VHH B09; source: E. coli TG1 periplasm, purified (His pure Cobalt sepharose beads); not shown: c-myc, C-terminal, kept; His, C-terminal, kept
# B4: VHH B10 (VHH)
# VHH: QVQLVESGGGLVQAGDSLRLSCAASGRTFSSYAMGWFRQALGKEREFVAVISGSGTSTYYTDSVKGRFTISRDNAKNTVYLQMNSLKPEDTAVYYCARAKGFSTIYNQDEGRYDYWGQGTQVTVSS
# notes: alpaca VHH from phage display (gene IGHV3-3); also called anti-hACE2 VHH B10; source: E. coli TG1 periplasm, purified (His pure Cobalt sepharose beads); not shown: c-myc, C-terminal, kept; His, C-terminal, kept
# How the values were obtained:
# [1] = target: T1, VHH B07-Fc (VHH B07 in fusion with the human IgG1 Fc segment) (alpaca); test: flow cytometry on cells; cell lines with exogenous or endogenous ACE2 incubated with 0.1 µg/mL VHH-Fc, 60 min at 4 °C; fluorescent anti-human IgG antibody; settings: one partner purified
# T1 construct: also called dimeric VHH-Fc; source: Expi293 cells, transfected, purified from supernatant (HiTrap protein A, SEC Superdex 75); not shown: Fc (human IgG1; hinge, CH2 and CH3), C-terminal, kept
# [2] = target: B1; test: flow cytometry on cells; cell lines with exogenous or endogenous ACE2 incubated with 10 µg/mL VHH, 60 min at 4 °C; anti-myc and fluorescent anti-mouse antibody; parental cells or a control VHH as negative controls; settings: one partner purified
# [3] = target: T2, soluble human ACE2 peptidase domain (residues 19-615), untagged (Homo sapiens, UniProt Q9BYF1); test: BLI; VHH-His immobilised on Ni-NTA biosensors, soluble hACE2 as analyte; PBS working buffer with 300 mM NaCl, pH 7.2, 30 °C; 1:1 fit, apparent KD; settings: both partners purified
# T2 construct: human ACE2 peptidase domain, residues 19-615, secreted with an IgK signal peptide; Residues of the thrombin site may remain at the C-terminus after cleavage; also called sACE2; soluble hACE2; source: Expi293F cells with kifunensine, purified (Streptactin, SEC, thrombin cleavage, SEC); not shown: His8, C-terminal, cleaved; Strep, C-terminal, cleaved
# [4] = target: T3, hACE2 peptidase domain fused to a human Fc from IgG (Homo sapiens, UniProt Q9BYF1); test: BLI; hACE2-Fc immobilised on AHC biosensors (1 µg/mL), monomeric VHHs as analytes; PBS working buffer with 300 mM NaCl, pH 7.2, 30 °C; global 1:1 fit, apparent KD; settings: both partners purified
# T3 construct: human angiotensin-converting enzyme 2, peptidase domain; also called hACE2-Fc; sACE2-Fc
# T2 sequence (Q9BYF1 19-615): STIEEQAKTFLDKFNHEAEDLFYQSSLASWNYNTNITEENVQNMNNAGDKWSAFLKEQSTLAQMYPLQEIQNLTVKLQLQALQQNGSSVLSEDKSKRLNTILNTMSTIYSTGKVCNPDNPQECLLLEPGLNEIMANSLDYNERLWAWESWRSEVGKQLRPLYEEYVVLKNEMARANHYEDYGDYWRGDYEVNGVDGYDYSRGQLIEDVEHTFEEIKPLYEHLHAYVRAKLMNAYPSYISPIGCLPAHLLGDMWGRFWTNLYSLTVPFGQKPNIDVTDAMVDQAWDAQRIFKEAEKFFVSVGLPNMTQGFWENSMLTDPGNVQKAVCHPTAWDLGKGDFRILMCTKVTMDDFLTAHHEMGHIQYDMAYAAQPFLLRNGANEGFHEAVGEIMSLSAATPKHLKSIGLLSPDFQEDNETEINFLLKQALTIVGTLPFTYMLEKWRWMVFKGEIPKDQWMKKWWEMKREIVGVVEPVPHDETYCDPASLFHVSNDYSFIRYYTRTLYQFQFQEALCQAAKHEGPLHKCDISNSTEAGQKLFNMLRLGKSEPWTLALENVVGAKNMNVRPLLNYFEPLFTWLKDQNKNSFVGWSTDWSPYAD
Binder,binding result [1],binding result [2],Kd [3] [nM],Kd [4] [nM]
B1,binds,–,–,–
B2,–,binds,1140,242
B3,–,binds,1960,214
B4,–,binds,22,21
